These results are taken from patent US20250163146A1 (H LEE MOFFITT CANCER CENTER AND RESEARCH INSTITUTE, published 2025).

The chains are these.
B1: nanobody clone A7 (VHH)
VHH: QVQLQESGGGLVQAGGSLRLSCAASGNIFYTYSMGWYRQAPGKEREFVAAISAGTITYYADSVKGRFTISRDNAKNTVYLQMNSLKPEDTAVYYCAVFAPRDVIHYYWGQGTQVTVSS
B2: nanobody clone B4 (VHH)
VHH: QVQLQESGGGLVQAGGSLRLSCAASGNISVWIPMGWYRQAPGKEREFVASIGEGSTTYYADSVKGRFTISRDNAKNTVYLQMNSLKPEDTAVYYCAVPYYGHSDYDYWGQGTQVTVSS
B3: nanobody clone A8 (VHH)
VHH: QVQLQESGGGLVQAGGSLRLSCAASGTIFEERVMGWYRQAPGKEREFVAGIASGAITYYADSVKGRFTISRDNAKNTVYLQMNSLKPEDTAVYYCAAQGYSFKTKPDYSAYVLVYWGQGTQVTVSS
B4: nanobody clone C2 (VHH)
VHH: QVQLQESGGGLVQAGGSLRLSCAASGSISVVYGMGWYRQAPGKEREFVAGISYGGSTYYADSVKGRFTISRDNAKNTVYLQMNSLKPEDTAVYYCAVDASYWDTLVYWGQGTQVTVSS
B5: nanobody clone A9 (VHH)
VHH: QVQLQESGGGLVQAGGSLRLSCAASGTISQDSGMGWYRQAPGKEREFVAGITAGSITYYADSVKGRFTISRDNAKNTVYLQMNSLKPEDTAVYYCAASYVSVQAHTYWGQGTQVTVSS
B6: nanobody clone C5 (VHH)
VHH: QVQLQESGGGLVQAGGSLRLSCAASGNISTGTAMGWYRQAPGKEREFVAGIAYGATTYYADSVKGRFTISRDNAKNTVYLQMNSLKPEDTAVYYCAVEVSQSTPGGRYSVAYLIYWGQGTQVTVSS
B7: nanobody clone C4 (VHH)
VHH: QVQLQESGGGLVQAGGSLRLSCAASGSISGDVEMGWYRQAPGKEREFVAGINDGGNTYYADSVKGRFTISRDNAKNTVYLQMNSLKPEDTAVYYCAVSTTYPSYNESQYADWLAYWGQGTQVTVSS
B8: nanobody clone B1 (VHH)
VHH: QVQLQESGGGLVQAGGSLRLSCAASGTIFYSSDMGWYRQAPGKEREFVAGINRGSTTYYADSVKGRFTISRDNAKNTVYLQMNSLKPEDTAVYYCAVVSDVLTRLFYWGQGTQVTVSS

T3 sequence (Q9NR61 27-401 limits assumed): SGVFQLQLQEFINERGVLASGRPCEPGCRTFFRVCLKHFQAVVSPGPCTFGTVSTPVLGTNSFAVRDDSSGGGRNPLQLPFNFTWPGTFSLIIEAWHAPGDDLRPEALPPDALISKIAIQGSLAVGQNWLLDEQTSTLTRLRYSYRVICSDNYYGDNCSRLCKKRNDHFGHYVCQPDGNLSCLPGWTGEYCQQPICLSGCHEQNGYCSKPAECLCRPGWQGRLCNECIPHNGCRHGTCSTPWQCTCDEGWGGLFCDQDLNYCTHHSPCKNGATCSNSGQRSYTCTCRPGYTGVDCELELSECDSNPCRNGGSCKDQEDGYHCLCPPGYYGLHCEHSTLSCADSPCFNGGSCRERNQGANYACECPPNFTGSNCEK

The target in one assay is T1, biotinylated murine DLL4 protein, truncation containing the C2, DSL, and EGF1-3 domains (DLL4 (N-EGF3)) (mouse, UniProt Q9JI71 27-324, limits assumed, biotinylated (site not stated)).
T1 construct: domain: C2, DSL, and EGF1-3 domains (N-EGF3); also called mDLL4; mouse DLL4
T1 sequence (Q9JI71 27-324 limits assumed): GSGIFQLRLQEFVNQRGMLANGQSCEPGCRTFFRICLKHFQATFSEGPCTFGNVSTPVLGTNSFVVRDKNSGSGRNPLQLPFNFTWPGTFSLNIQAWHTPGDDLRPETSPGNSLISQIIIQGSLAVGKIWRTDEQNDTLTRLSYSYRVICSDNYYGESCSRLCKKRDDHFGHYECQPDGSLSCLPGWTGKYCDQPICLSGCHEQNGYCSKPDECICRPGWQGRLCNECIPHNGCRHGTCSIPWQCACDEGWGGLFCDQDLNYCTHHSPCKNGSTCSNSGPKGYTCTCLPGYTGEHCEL
Description: yeast display, biotinylated mDLL4 + SA-647, flow cytometry. On the procedure:
(§1) 162. To isolate binding molecules that interrupted the interaction of DLL4 and Notch1, we performed several rounds of selection using decreasing concentrations of biotinylated murine DLL4 protein. The mDLL4 protein was a truncation that contained the C2, DSL, and EGF1-3 domains (DLL4 (N-EGF3)). To perform a selection, the library was stained with biotinylated mDLL4, washed, incubated with streptavidin-647, washed, and then binders isolated selected using either (a) magnetic beads coated with an anti-647 antibody or (b) FACS. The mDLL4-binding yeast were then plated so that individual colonies could be picked and cultured to isolate individual clones. The clones were then each stained with mDLL4 and SA-647 and analyzed by flow cytometry to confirm that they bound to mDLL4. (FIG. 1).
On the technique in general: Flow cytometry measures light scatter and fluorescence of single cells or particles in a stream.
B1: the binding result is given as “binds”.

A further assay deals with T2, human DLL4 (N-EGF3) (human, UniProt Q9NR61 27-323, limits assumed, biotinylated (site not stated); used unlabeled in the complex with biotinylated hNotch1 (6-13)).
T2 construct: domain: N-EGF3; also called hDLL4; hDLL4 (N-3)
T2 sequence (Q9NR61 27-323 limits assumed): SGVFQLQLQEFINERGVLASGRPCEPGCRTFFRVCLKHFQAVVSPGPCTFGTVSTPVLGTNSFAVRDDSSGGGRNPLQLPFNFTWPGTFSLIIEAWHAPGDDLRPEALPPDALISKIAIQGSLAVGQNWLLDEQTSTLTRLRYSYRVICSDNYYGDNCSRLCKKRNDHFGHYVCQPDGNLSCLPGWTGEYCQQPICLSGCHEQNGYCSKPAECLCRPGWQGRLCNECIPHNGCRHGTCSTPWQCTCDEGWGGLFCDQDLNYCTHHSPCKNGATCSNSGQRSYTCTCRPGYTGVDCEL
Description: yeast display, biotinylated human DLL4 (N-EGF3), SA-647, flow cytometry. The method, then:
(§2) The eight anti-DLL4 nanobody clones were then tested for cross-reactivity between human and mouse DLL4. Yeast cells expressing each nanobody were stained with biotinylated human DLL4 (N-EGF3), washed, stained with SA-647, and then analyzed by flow cytometry.
Turning to B2, the binding result was “no binding”.

Consider B3, for which the binding result was “no binding”.

In the case of B4, the binding result is “no binding”.

For B5, the binding result is recorded as “no binding”.

Another assay has as its target T3, human DLL4 (N-terminus to EGF5) (human, UniProt Q9NR61 27-401, limits assumed, biotinylated in the flow cytometry titration (site not stated); not stated for the plate-coated protein).
T3 construct: domain: N-terminus to EGF5 (C2, DSL, and EGF1-5 domains); also called recombinant human DLL4 protein containing the C2, DSL, and EGF1-5 domains
Description: nanobody incubated with increasing concentrations of biotinylated human DLL4 (N-terminus to EGF5), streptavidin Alexa Fluor 647, flow cytometry. On the procedure:
166. To determine the ability of the C4 and C5 nanobodies to bind DLL4, C4 and C5 nanobodies were incubated with increasing concentrations of biotinylated human DLL4 (N-terminus to EGF5) and binding was detected using streptavidin labeled with Alexa Fluor 647. Fluorescence was then monitored by flow cytometry and EC50 values were calculated for each nanobody (FIG. 5).
B6: the binding result was “binds”.

B7: the binding result is listed as “binds”.

For the next assay, the target named is T1, biotinylated murine DLL4 protein, …. Description: yeast display, flow cytometry (FIG. 1). On the procedure: as §1
As to B8, the binding result is “binds”.

As to B6, the binding result is “binds”.

Regarding B2, the binding result is reported as “binds”.

For the molecule B7, the binding result is “binds”.

Take B3: the binding result is “binds”.

In the case of B4, the binding result is recorded as “binds”.

For B5, the binding result is listed as “binds”.

The target in the next assay is T2, human DLL4 (N-EGF3). Description: yeast display, biotinylated human DLL4 (N-EGF3) + SA-647, flow cytometry. The method, then:
as §2
Take B8: the binding result was “binds”.

As for B6, the binding result was “binds”.

With B7, the binding result is “binds”.

Consider B1, for which the binding result is “binds”.
